Blank lines part the entries; values can stand above or below the binder they belong to.
Assays:
[1] = target: T1, TIMP-2 region 145NHRYQMGCECKI156 (human); assay: Pepscan ELISA on linear 15-mer TIMP-2 peptides
T1 construct: This exact peptide was not itself the assayed species
T1 peptide: NHRYQMGCECKI
Protocol: (§1) Synthetic linear peptides were synthesized and screened as described by Slootstra et al. (Slootstra et al., 1996, Mol. Diversity 1, 87-96) and Timmerman et al. (Timmerman et al., 2007, J, Mol Recognit 20, 283-299). The binding of antibody to each peptide was tested in a PEPSCAN-based enzyme-linked immuno assay (ELISA). The covalently linked peptides were incubated with sample (for example 1 μg/mL antibody diluted in a PBS solution containing 5% horse serum (vol/vol) and 4% ovalbumin (weight/vol)) and 1% Tween 80 at 4° C. overnight. After washing, the peptides were incubated with Goat-anti-Rabbit HRP (Jackson Immunoresearch) for 1 hour at 25° C., and subsequently, after washing the peroxidase substrate 2,2′-azino-di-3-ethylbenzthiazoline sulfonate (ABTS) and […] 3% H₂O₂ were added. After 1 hour the color development was measured.

[2] = target: T2, TIMP-2 region 132PWDTLSTTQKK142 (human); assay: Pepscan ELISA on linear 15-mer TIMP-2 peptides
T2 construct: This exact peptide was not itself the assayed species
T2 peptide: PWDTLSTTQKK
Protocol: as §1

binding result [1]: binds
B1: antibody 40H2-40K3 (antibody, V domains shown)
VH: QSLEESGGDLVKPEGSLTLTCTASGFTISSNYYMCWVRQAPGKGLEWVACILGGSGTYTYYATWAKGRFTISKTSSTTVTLQMPSLTAADTATYFCARQAPADTYLYGGYGPFNLWGQGTLVTVSS
VL: DIVMTQTPSSVEAAVGGTVTIKCQASESISGWLAWYQQKPGQPPKLLIYRASTLESGVPSRFKGSGSGTEFTLTISDLECADAATYYCQCSYGINGNSEHGNPFGGGTEVVVKR

binding result [2]: binds
B2: antibody 6E2.1 (antibody, V domains shown)
VH: QVQLQQSGPQLVRPGASVKISCKASGYSFTSYWMHWVKQRPGQGLEWIGVIDPSDSETRLNQKFKDKATLTVDKSSSTAYMQLNSPTSEDSAVYYCARRDYGSRYDAMDYWGQGTSVTVSS
VL: DIQMTQSSSYLSVSLGGRVTITCKASDHINNWLAWYQQKPGNAPRLLISGATSLETGVPSRFSGSGSGKDYTLSITSLQTEDVATYYCQQYWSTPFTFGSGTKLEIK
notes: Both are partial: a leader, the variable domain and only the start of the constant region
